Fold decrease in binding against full-length VP1/2 and efficiency of coimmunoprecipitation as percent of full-length GFP-VP1/2 data for two substances are collected here from article PMC3808164.

Test in all cases: co-IP
The target of assay [1] is GFP-tagged VP1/2 with a single deletion of regions 1–4 (C terminus intact) (pseudorabies virus (PRV)).
Assay [2] addresses GFP-tagged VP1/2 with the region 6^S deletion combined with deletion of regions 1–4 (pseudorabies virus (PRV)).
For assay [3], the target named is GFP-tagged VP1/2[change]^S (deletion of region 6^S in the context of full-length VP1/2) (pseudorabies virus (PRV)).
Assay [4] addresses GFP-tagged VP1/2 regions 6 and 7 (deletion of regions 1–5) (pseudorabies virus (PRV)).
For assay [5], the target named is GFP-VP1/2[change] (pseudorabies virus (PRV)).

As to “p50/dynamitin (from UniProt Q13561 1-401) (natural protein)”, the fold decrease in binding against full-length VP1/2 in assay [1] was 9 fold; in assay [2], 23 fold; in assay [3] it was 4 fold; in assay [4], 11 fold.
“p150/glued dynactin subunit (from UniProt Q14203 1-1278) (natural protein)”: the fold decrease in binding against full-length VP1/2 in assay [1] and in assay [3] was 5 fold in each case. Besides, the efficiency of coimmunoprecipitation as percent of full-length GFP-VP1/2 in assay [5] is 79%.
